Nine molecules from patent publication US20100272750A1 can be followed below.

For experiment [1], the target named is HLA DRB1*0401 (human). Put plainly: competition with 125I probe peptide, purified HLA; crude peptide batch.
Experiment [2] addresses HLA DRB1*0405 (human). The description is as above.
The target of experiment [3] is HLA DRB1*0701 (human). The description is as above.
The target of experiment [4] is HLA DRB4*0101 (human). The description is as above.
The target of experiment [5] is HLA DRB1*0901 (human). The description is as above.
For experiment [6], the target named is HLA DRB1*0802 (human). The experiment is described as above.
For experiment [7], the target named is HLA DRB1*1201 (human). The experiment is described as above.
Experiment [8] concerns the target HLA DRB1*1501 (human). The description is as above.
The target of experiment [9] is HLA DRB1*0101 (human). The description is as above.
The target in experiment [10] is HLA DRB1*0404 (human). Described as above.
For experiment [11], the target named is HLA DRB1*1101 (human). The experiment is described as above.
The target in experiment [12] is HLA DRB1*0401 (human). Nature of the experiment: competition with 125I probe peptide, purified HLA.
The target of another experiment is HLA DRB1*1302 (human). Nature of the experiment: competition with 125I probe peptide, purified HLA.
For a further experiment, the target named is HLA DRB5*0101 (human). Nature of the experiment: competition with 125I probe peptide, purified HLA.
Experiment [13] has as its target HLA DRB1*0405 (human). Put plainly: competition with 125I probe peptide, purified HLA.
The target of experiment [14] is HLA DRB1*0701 (human). Nature of the experiment: competition with 125I probe peptide, purified HLA.
The target of experiment [15] is HLA DRB4*0101 (human). Nature of the experiment: competition with 125I probe peptide, purified HLA.
Experiment [16] addresses HLA DRB1*0802 (human). Put plainly: competition with 125I probe peptide, purified HLA.
Experiment [17] addresses HLA DRB1*1201 (human). Put plainly: competition with 125I probe peptide, purified HLA.
For experiment [18], the target named is HLA DRB1*1501 (human). Nature of the experiment: competition with 125I probe peptide, purified HLA.
In experiment [19] the target is HLA DRB1*0101 (human). Nature of the experiment: competition with 125I probe peptide, purified HLA.
The target of experiment [20] is HLA DRB1*0404 (human). Nature of the experiment: competition with 125I probe peptide, purified HLA.
Experiment [21] deals with HLA DRB1*1101 (human). Put plainly: competition with 125I probe peptide, purified HLA.
In the next experiment the target is HLA DRB1*0301 (human). Nature of the experiment: competition with 125I probe peptide, purified HLA.
Experiment [22] addresses HLA DRB1*0901 (human). Nature of the experiment: competition with 125I probe peptide, purified HLA.
The target of the next experiment is HLA DRB3*0101 (human). Put plainly: competition with 125I probe peptide, purified HLA.

For LQAIELQLTLETIYN (modifications not checked) [HPV16.E2.070 HTL epitope], the IC50 is 37 nM in the experiment with HLA DRB1*0401 (human) [1]; 384 nM in the experiment with HLA DRB1*0405 (human) [2]; 3280 nM in the experiment with HLA DRB1*0701 (human) [3]; 2 nM in the experiment with HLA DRB4*0101 (human) [4]; 1430 nM with HLA DRB1*0901 (human) [5]; 7610 nM with HLA DRB1*0802 (human) [6]. Also, the IC50 turned out to be 268 nM with HLA DRB1*1201 (human) [7]; 688 nM in the experiment with HLA DRB1*1501 (human) [8]; 42 nM with HLA DRB1*0101 (human) [9]; 282 nM with HLA DRB1*0404 (human) [10]; 4380 nM in the experiment with HLA DRB1*1101 (human) [11].

As to QRFHNIRGRWTGRCM (modifications not checked) [HPV16.E6.130 HTL epitope], the IC50 with HLA DRB1*0401 (human) [12] was 2900 nM; in the experiment with HLA DRB1*1302 (human) it was 5310 nM; with HLA DRB5*0101 (human), 919 nM; with HLA DRB1*0405 (human) [13] it was 4470 nM; with HLA DRB1*0701 (human) [14], 277 nM; with HLA DRB4*0101 (human) [15], 4550 nM. In addition, the IC50 worked out at 894 nM in the experiment with HLA DRB1*0802 (human) [16]; 14600 nM with HLA DRB1*1201 (human) [17]; 17200 nM with HLA DRB1*1501 (human) [18]; 36 nM in the experiment with HLA DRB1*0101 (human) [19]; 4110 nM with HLA DRB1*0404 (human) [20]; 574 nM in the experiment with HLA DRB1*1101 (human) [21].

On to DWVMAIFGVNPTVAEGF (modifications not checked) [HPV45.E1.228 HTL epitope], for which the IC50 was determined as 91 nM with HLA DRB1*0401 (human) [12]; 3750 nM with HLA DRB1*0301 (human); 68 nM with HLA DRB1*1302 (human); 387 nM in the experiment with HLA DRB5*0101 (human); 92 nM with HLA DRB1*0405 (human) [13]; 52 nM with HLA DRB1*0701 (human) [14]. The IC50 with HLA DRB4*0101 (human) [15] came to 571 nM; with HLA DRB1*0901 (human) [22], 17900 nM; with HLA DRB1*0802 (human) [16], 4260 nM; with HLA DRB1*1501 (human) [18] it was 108 nM; with HLA DRB1*0101 (human) [19] it was 487 nM; in the experiment with HLA DRB1*0404 (human) [20], 20 nM. In the experiment with HLA DRB1*1101 (human) [21], this molecule gave an IC50 of 4960 nM.

As to FHSIAGQYRGQCNTC (modifications not checked) [HPV45.E6.127 HTL epitope], the IC50 with HLA DRB1*0401 (human) [12] turned out to be 8.6 nM; with HLA DRB5*0101 (human) it was 43 nM; in the experiment with HLA DRB1*0405 (human) [13], 358 nM; with HLA DRB1*0701 (human) [14] it was 2400 nM; with HLA DRB4*0101 (human) [15], 1300 nM; in the experiment with HLA DRB1*0901 (human) [22], 1990 nM. For the same molecule, the IC50 in the experiment with HLA DRB1*0802 (human) [16] stood at 7640 nM; with HLA DRB1*1201 (human) [17], 10100 nM; with HLA DRB1*1501 (human) [18] it was 574 nM; with HLA DRB1*0101 (human) [19] it was 107 nM; with HLA DRB1*0404 (human) [20], 3300 nM; in the experiment with HLA DRB1*1101 (human) [21], 416 nM.

Turning to WKHIRLECVLMYKAR (modifications not checked) [HPV31.E2.033 HTL epitope], the IC50 with HLA DRB1*0401 (human) [12] came out at 263 nM; with HLA DRB1*0301 (human), 146 nM; with HLA DRB1*1302 (human) it was 54 nM; with HLA DRB5*0101 (human), 412 nM; with HLA DRB1*0405 (human) [13], 71 nM; with HLA DRB1*0701 (human) [14] it was 16400 nM. Also, the IC50 is 102 nM with HLA DRB4*0101 (human) [15]; 11800 nM in the experiment with HLA DRB1*0901 (human) [22]; 476 nM in the experiment with HLA DRB1*0802 (human) [16]; 134 nM with HLA DRB1*1501 (human) [18]; 1440 nM with HLA DRB1*0101 (human) [19]; 307 nM in the experiment with HLA DRB1*0404 (human) [20]. Further, in the experiment with HLA DRB1*1101 (human) [21], the IC50 was 81 nM.

For the molecule TGRCIACWRRPRTET (modifications not checked) [HPV31.E6.132 HTL epitope], the IC50 in the experiment with HLA DRB1*0401 (human) [12] is 758 nM; in the experiment with HLA DRB1*0301 (human), 1030 nM; with HLA DRB1*1302 (human), 2770 nM; in the experiment with HLA DRB5*0101 (human) it was 6050 nM; with HLA DRB1*0405 (human) [13], 733 nM; with HLA DRB1*0701 (human) [14], 11500 nM. Moreover, the IC50 with HLA DRB4*0101 (human) [15] is 225 nM; in the experiment with HLA DRB1*0901 (human) [22], 13600 nM; in the experiment with HLA DRB1*0802 (human) [16] it was 512 nM; in the experiment with HLA DRB3*0101 (human), 5960 nM; with HLA DRB1*1201 (human) [17] it was 4950 nM; with HLA DRB1*1501 (human) [18] it was 84 nM. For the same molecule, the IC50 with HLA DRB1*0101 (human) [19] worked out at 3170 nM; in the experiment with HLA DRB1*0404 (human) [20] it was 1150 nM; in the experiment with HLA DRB1*1101 (human) [21], 158 nM.

With LDLQPETTDLYCYEQ (modifications not checked) [HPV16.E7.13 HTL epitope], the IC50 in the experiment with HLA DRB1*0401 (human) [12] amounted to 1900 nM; with HLA DRB1*0301 (human), 590 nM; with HLA DRB4*0101 (human) [15], 17 nM.

Regarding WKHMRLECAIYYKAR (modifications not checked) [HPV16.E2.033 HTL epitope], the IC50 amounted to 245 nM in the experiment with HLA DRB1*0401 (human) [12]; 437 nM with HLA DRB1*0301 (human); 248 nM in the experiment with HLA DRB1*1302 (human); 280 nM with HLA DRB5*0101 (human); 557 nM with HLA DRB1*0405 (human) [13]; 504 nM in the experiment with HLA DRB1*0701 (human) [14]. For the same molecule, the IC50 with HLA DRB4*0101 (human) [15] was found to be 766 nM; in the experiment with HLA DRB1*0901 (human) [22], 6340 nM; with HLA DRB1*0802 (human) [16], 90 nM; with HLA DRB1*1501 (human) [18] it was 1390 nM; in the experiment with HLA DRB1*0101 (human) [19] it was 701 nM; with HLA DRB1*0404 (human) [20] it was 6860 nM. The IC50 with HLA DRB1*1101 (human) [21] came out at 2400 nM.

With NGWFYVEAVIDRQTG (modifications not checked) [HPV31.E1.15 HTL epitope], the IC50 came out at 845 nM in the experiment with HLA DRB1*0401 (human) [12]; 2800 nM in the experiment with HLA DRB1*0301 (human); 1200 nM with HLA DRB5*0101 (human); 178 nM with HLA DRB1*0405 (human) [13]; 1460 nM with HLA DRB1*0701 (human) [14]; 627 nM with HLA DRB4*0101 (human) [15]. Further, the IC50 with HLA DRB1*0901 (human) [22] came out at 3670 nM; with HLA DRB1*0101 (human) [19] it was 1860 nM; with HLA DRB1*0404 (human) [20] it was 18800 nM.
